Earlier results on 1 substance are cited in paper PMC6359176.

Usually Kd stands for the constant that tells how readily two partners part at equilibrium.

This data set deals with α-synuclein preformed fibrils (Homo sapiens) (UniProt P37840).

In the case of LAG3 (from UniProt Q61790), the Kd is 77 nM.
